Assay results from the supplement of paper PMC11811203.

B1: THAP1; numbered along this chain (parent)
chain: MVQSCSAYGCKNRYDKDKPVSFHKFPLTRPSLCKEWEAAVRRKNFKPTKYSSICSEHFTPDCFKRECNNKLLKENAVPTIFLCTEPHDKKEDLLEPQEQLPPPPLPPPVSQVDAAIGLLMPPLQTPVNLSVFCDHNYTVEDTMHQRKRIHQLEQQVEKLRKKLKTAQQRCRRQERQLEKLKEVVHFQKEKDDVSERGYVILPNDYFEIVEVPA

Variants of: B1
Test: THAP1 transcriptional activity (GFP+/GFP- enrichment relative to wild-type constructs) (ratio to WT); higher = more THAP1 activity (PSMB5 reporter activation)
Conditions: with PSMB5 promoter-GFP reporter
Procedure, shortened: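 Activity values are replicate-mean bright/dim read fold changes divided by the mean of wild-type synonymous constructs. They come from a human THAP1 site-saturation library (residues 2–213, each changed to all 20 amino acids) delivered by lentivirus at MOI ~0.3, in duplicate, into THAP1-knockout HEK-293T cells with mClover3 at endogenous PSMB5. BFP+ cells were sorted into GFP-dim and GFP-bright bins after five days, and variants were counted by Illumina sequencing of genomic DNA amplicons.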

Point of comparison: MVQSCSAYGCKNRYDKDKPVSFHKFPLTRPSLCKEWEAAVRRKNFKPTKYSSICSEHFTPDCFKRECNNKLLKENAVPTIFLCTEPHDKKEDLLEPQEQLPPPPLPPPVSQVDAAIGLLMPPLQTPVNLSVFCDHNYTVEDTMHCRKRIHQLEQQVEKLRKKLKTAQQRCRRQERQLEKLKEVVHFQKEKDDVSERGYVILPNDYFEIVEVPA [Q145C], THAP1 transcriptional activity 0.357. Against it:
- MVQSCSAYGCKNRYDKDKPVSFHKFPLTRPSLCKEWEAAVRRKNFKPTKYSSICSEHFTPDCFKRECNNKLLKENAVPTIFLCTEPHDKKEDLLEPQEQLPPPPLPPPVSQVDAAIGLLMPPLQTPVNLSVFCDHNYTVEDTMYQRKRIHQLEQQVEKLRKKLKTAQQRCRRQERQLEKLKEVVHFQKEKDDVSERGYVILPNDYFEIVEVPA [H144Y] — higher, 0.802
- MVQSCSAYGCKNRYDKDKPVSFHKFPLTRPSLCKEWEAAVRRKNFKPTKYSSICSEHFTPDCFKRECNNKLLKENAVPTIFLCTEPHDKKEDLLEPQEQLPPPPLPPPVSQVDAAIGLLMPPLQTPVNLSVFCDHNYTVEDTMWQRKRIHQLEQQVEKLRKKLKTAQQRCRRQERQLEKLKEVVHFQKEKDDVSERGYVILPNDYFEIVEVPA [H144W] — higher, 0.56
- MVQSCSAYGCKNRYDKDKPVSFHKFPLTRPSLCKEWEAAVRRKNFKPTKYSSICSEHFTPDCFKRECNNKLLKENAVPTIFLCTEPHDKKEDLLEPQEQLPPPPLPPPVSQVDAAIGLLMPPLQTPVNLSVFCDHNYTVEDTMVQRKRIHQLEQQVEKLRKKLKTAQQRCRRQERQLEKLKEVVHFQKEKDDVSERGYVILPNDYFEIVEVPA [H144V] — higher, 0.388
- MVQSCSAYGCKNRYDKDKPVSFHKFPLTRPSLCKEWEAAVRRKNFKPTKYSSICSEHFTPDCFKRECNNKLLKENAVPTIFLCTEPHDKKEDLLEPQEQLPPPPLPPPVSQVDAAIGLLMPPLQTPVNLSVFCDHNYTVEDTMRQRKRIHQLEQQVEKLRKKLKTAQQRCRRQERQLEKLKEVVHFQKEKDDVSERGYVILPNDYFEIVEVPA [H144R] — higher, 0.709
- MVQSCSAYGCKNRYDKDKPVSFHKFPLTRPSLCKEWEAAVRRKNFKPTKYSSICSEHFTPDCFKRECNNKLLKENAVPTIFLCTEPHDKKEDLLEPQEQLPPPPLPPPVSQVDAAIGLLMPPLQTPVNLSVFCDHNYTVEDTMTQRKRIHQLEQQVEKLRKKLKTAQQRCRRQERQLEKLKEVVHFQKEKDDVSERGYVILPNDYFEIVEVPA [H144T] — higher, 0.4
- MVQSCSAYGCKNRYDKDKPVSFHKFPLTRPSLCKEWEAAVRRKNFKPTKYSSICSEHFTPDCFKRECNNKLLKENAVPTIFLCTEPHDKKEDLLEPQEQLPPPPLPPPVSQVDAAIGLLMPPLQTPVNLSVFCDHNYTVEDTMSQRKRIHQLEQQVEKLRKKLKTAQQRCRRQERQLEKLKEVVHFQKEKDDVSERGYVILPNDYFEIVEVPA [H144S] — higher, 0.747
- MVQSCSAYGCKNRYDKDKPVSFHKFPLTRPSLCKEWEAAVRRKNFKPTKYSSICSEHFTPDCFKRECNNKLLKENAVPTIFLCTEPHDKKEDLLEPQEQLPPPPLPPPVSQVDAAIGLLMPPLQTPVNLSVFCDHNYTVEDTMQQRKRIHQLEQQVEKLRKKLKTAQQRCRRQERQLEKLKEVVHFQKEKDDVSERGYVILPNDYFEIVEVPA [H144Q] — higher, 0.814
- MVQSCSAYGCKNRYDKDKPVSFHKFPLTRPSLCKEWEAAVRRKNFKPTKYSSICSEHFTPDCFKRECNNKLLKENAVPTIFLCTEPHDKKEDLLEPQEQLPPPPLPPPVSQVDAAIGLLMPPLQTPVNLSVFCDHNYTVEDTMHGRKRIHQLEQQVEKLRKKLKTAQQRCRRQERQLEKLKEVVHFQKEKDDVSERGYVILPNDYFEIVEVPA [Q145G] — higher, 0.569
- MVQSCSAYGCKNRYDKDKPVSFHKFPLTRPSLCKEWEAAVRRKNFKPTKYSSICSEHFTPDCFKRECNNKLLKENAVPTIFLCTEPHDKKEDLLEPQEQLPPPPLPPPVSQVDAAIGLLMPPLQTPVNLSVFCDHNYTVEDTMHERKRIHQLEQQVEKLRKKLKTAQQRCRRQERQLEKLKEVVHFQKEKDDVSERGYVILPNDYFEIVEVPA [Q145E] — higher, 0.577
- MVQSCSAYGCKNRYDKDKPVSFHKFPLTRPSLCKEWEAAVRRKNFKPTKYSSICSEHFTPDCFKRECNNKLLKENAVPTIFLCTEPHDKKEDLLEPQEQLPPPPLPPPVSQVDAAIGLLMPPLQTPVNLSVFCDHNYTVEDTMHDRKRIHQLEQQVEKLRKKLKTAQQRCRRQERQLEKLKEVVHFQKEKDDVSERGYVILPNDYFEIVEVPA [Q145D] — higher, 0.415
- MVQSCSAYGCKNRYDKDKPVSFHKFPLTRPSLCKEWEAAVRRKNFKPTKYSSICSEHFTPDCFKRECNNKLLKENAVPTIFLCTEPHDKKEDLLEPQEQLPPPPLPPPVSQVDAAIGLLMPPLQTPVNLSVFCDHNYTVEDTMHARKRIHQLEQQVEKLRKKLKTAQQRCRRQERQLEKLKEVVHFQKEKDDVSERGYVILPNDYFEIVEVPA [Q145A] — higher, 1.08
- MVQSCSAYGCKNRYDKDKPVSFHKFPLTRPSLCKEWEAAVRRKNFKPTKYSSICSEHFTPDCFKRECNNKLLKENAVPTIFLCTEPHDKKEDLLEPQEQLPPPPLPPPVSQVDAAIGLLMPPLQTPVNLSVFCDHNYTVEDTMHFRKRIHQLEQQVEKLRKKLKTAQQRCRRQERQLEKLKEVVHFQKEKDDVSERGYVILPNDYFEIVEVPA [Q145F] — higher, 0.716
- MVQSCSAYGCKNRYDKDKPVSFHKFPLTRPSLCKEWEAAVRRKNFKPTKYSSICSEHFTPDCFKRECNNKLLKENAVPTIFLCTEPHDKKEDLLEPQEQLPPPPLPPPVSQVDAAIGLLMPPLQTPVNLSVFCDHNYTVEDTMHHRKRIHQLEQQVEKLRKKLKTAQQRCRRQERQLEKLKEVVHFQKEKDDVSERGYVILPNDYFEIVEVPA [Q145H] — higher, 0.747
